# Assay results taken from patent US12465660B2, “Compositions and methods for cancer imaging and radiotherapy” (VECT-HORUS, priority 2017, dated 2025).
# Positions of bridges follow the written chain, without caps; N, C: chain ends. Non-standard residues stand in square brackets, D forms with d. Primed or numbered codes have the meaning given here. No end group written: not given here. *: point of attachment. DOTA = O=C(O)CN1CCN(CC(=O)O)CCN(CC(=O)*)CCN(CC(=O)O)CC1; NODAGA′ = not defined here; PEG12′ = not defined here; βAla = NCCC(=O)O
# Assays:
# [1] = biological target: T1, Recombinant human LDLR (His-tagged) (Homo sapiens, UniProt P01130); experiment: SPR affinity of MG04/VH-DO35, CH44, FG770, CH40 and FG769 for LDLR (Biacore T200); format: binding; conditions: 25° C.
# T1 construct: purchased Sino Biological (Beijing, China)
# Experimental: (§1) Recombinant human LDLR (His-tagged) was purchased from Sino Biological (Beijing, China). Interaction of conjugates with LDLR was tested at 25° C. using a Biacore T200 (GE Healthcare) and 50 mM HEPES-NaOH pH7.4, 150 mM NaCl, 0.005% Tween-20, 50 μM EDTA as running buffer. hLDLR was immobilized on a NiHC sensor chip (Xantec, Dusseldorf, Germany) at a density of 35-60 fmol/mm^2. Binding of conjugates to LDLR-coated flow cells was corrected for non-specific binding to uncoated flow cells. The single-cycle kinetic method was used to measure the affinity of ligands with LDLR. Ligands were diluted in running buffer and injected sequentially 2 minutes at 30 μl/min using increasing concentrations. Blank run injections of running buffer were performed in the same conditions before ligand injection. Double-subtracted sensorgrams were globally fitted with the 1:1 Langmuir binding model from Biacore T200 Evaluation version 2.0.
# [2] = biological target: T1, Recombinant human LDLR (His-tagged); experiment: SPR affinity of conjugates A, B, C and D for LDLR (Biacore T200); format: binding; conditions: 25° C.
# Experimental: as §1
# [3] = system: CHO-hLDLR-GFP cells; experiment: Binding/endocytosis of fluorescent conjugates by LDLR expressing cells (confocal microscopy); format: cell-based, Chinese Hamster; conditions: live cells, 1 hour at 37° C.
# Excerpt: In these experiments, with regards to FIG. 2, the LDLR-GFP signal is visualized in column 2, the conjugate signal is either directly visualized in column 4 using the A680 fluorescence or in column 3 using an anti-hFc-A594 conjugated secondary antibody. Cell nuclei were stained in blue with Hoechst and its signal can be visualized in column 1. The co-labelling of LDLR-GFP and conjugates can be visualized as a highlight signal in column 5 on the merge image.
# T1 sequence (P01130 22-860): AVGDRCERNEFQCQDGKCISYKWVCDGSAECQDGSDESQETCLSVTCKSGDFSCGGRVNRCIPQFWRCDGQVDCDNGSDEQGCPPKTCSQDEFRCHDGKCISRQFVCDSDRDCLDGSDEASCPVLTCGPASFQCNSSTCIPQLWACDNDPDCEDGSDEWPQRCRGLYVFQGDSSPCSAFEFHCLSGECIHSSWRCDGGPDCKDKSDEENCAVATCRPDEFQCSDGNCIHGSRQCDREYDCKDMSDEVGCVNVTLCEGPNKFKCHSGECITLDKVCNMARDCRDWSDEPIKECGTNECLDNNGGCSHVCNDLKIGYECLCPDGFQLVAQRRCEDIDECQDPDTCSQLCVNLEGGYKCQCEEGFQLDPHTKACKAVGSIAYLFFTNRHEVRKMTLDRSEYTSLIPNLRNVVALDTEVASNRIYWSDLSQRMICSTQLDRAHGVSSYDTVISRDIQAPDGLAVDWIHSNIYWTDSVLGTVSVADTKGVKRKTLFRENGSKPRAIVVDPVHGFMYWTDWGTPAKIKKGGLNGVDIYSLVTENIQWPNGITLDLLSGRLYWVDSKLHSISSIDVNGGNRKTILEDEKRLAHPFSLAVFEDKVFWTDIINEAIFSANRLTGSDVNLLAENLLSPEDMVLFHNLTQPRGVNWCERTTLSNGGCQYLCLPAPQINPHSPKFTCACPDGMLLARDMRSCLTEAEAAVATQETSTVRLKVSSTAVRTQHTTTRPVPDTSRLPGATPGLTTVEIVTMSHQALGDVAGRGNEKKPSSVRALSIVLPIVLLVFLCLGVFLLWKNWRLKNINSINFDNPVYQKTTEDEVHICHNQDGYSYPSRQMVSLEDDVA
KD [1],KD [2],Substance,binding to and endocytosis by CHO-hLDLR-GFP cells [3]
No Binding,,"DOTA-βAla-PEG12-SEQ ID NO: 13-NH2 ({DOTA-βAla-PEG12′}-[dC]RPLGRMC-NH2; disulfide 1-8) [FG769, scrambled counterpart of FG770]",
,No Binding,"Fc-Peptide D-A680 (CRMLGRPC; cysteine pairing not given here; also: fused to a dimerising Fc or GST) [Conjugate D, control]",are not
No Binding,,"NODAGA-βAla-PEG12-SEQ ID NO: 13-NH2 ({NODAGA′-βAla-PEG12′}-[dC]RPLGRMC-NH2; disulfide 1-8) [CH40, scrambled counterpart of CH44]",
